What all share (test): EMSA
(In EMSA bound probe runs differently from free probe, usually more slowly.)

For data set [1], the system named is RsmA4 (Pseudomonas syringae pv. tomato DC3000).
In data set [2] the test system is RsmA2 (Pseudomonas syringae pv. tomato DC3000).
In data set [3] the test system is RsmA3 (Pseudomonas syringae pv. tomato DC3000).
Data set [4] deals with RsmA1 (Pseudomonas syringae pv. tomato DC3000).

For rsmX1, the binding signal in data set [1] is 640 nM; in data set [2], 40 nM; in data set [3] it was 40 nM; in data set [4] it was 320 nM.

In the case of rsmX5, the binding signal in data set [1] turned out to be 640 nM; in data set [2] it was 40 nM; in data set [3], 40 nM; in data set [4], 320 nM.

With rsmY, the binding signal in data set [1] came to 640 nM; in data set [2], 40 nM; in data set [3] it was 40 nM; in data set [4] it was 320 nM.

rsmZ: the binding signal is 640 nM in data set [1], 40 nM in data set [2], 40 nM in data set [3] and 320 nM in data set [4].

These data come from PMC6715622.
